PMC10140725 (Scientific Reports, 2023)

Tests used:
[1] = biological target: hemagglutinin (HA) of H1N1 influenza A strain A/Denver/57/1957, mature HA1/HA2 (Influenza A virus H1N1, strain A/Denver/57/1957); experiment: crystal structure
[2] = biological target: hemagglutinin (HA) of H1N1 influenza A strain A/Melbourne/1/1946, mature HA1/HA2 trimer (Influenza A virus H1N1, strain A/Melbourne/1/1946); experiment: crystal structure
[3] = biological target: hemagglutinin (HA) of H1N1 influenza A strain A/Fort Monmouth/1/1947, mature HA1/HA2 trimer (Influenza A virus H1N1, strain A/Fort Monmouth/1/1947); experiment: crystal structure
[4] = biological target: hemagglutinin (HA) of H1N1 influenza A strain A/Netherlands/002P1/1951, mature HA1/HA2 trimer (Influenza A virus H1N1, strain A/Netherlands/002P1/1951); experiment: crystal structure
[5] = biological target: hemagglutinin (HA) of H1N1 influenza A strain A/Hickox/JY2/1940, mature HA1/HA2 trimer (Influenza A virus H1N1, strain A/Hickox/JY2/1940) (UniProt Q0HD60); experiment: crystal structure
[6] = biological target: hemagglutinin (HA) of H1N1 influenza A strain A/Iowa/1943 (Influenza A virus H1N1, A/Iowa/1943 …, UniProt A4GCK8, strain); experiment: SEC; details: both partners purified

With “hemagglutinin (HA) of H1N1 influenza A strain A/Denver/57/1957, mature HA1/HA2 (natural protein)” as the molecule, how does the stoichiometry N [1] read?
Its stoichiometry N is 3.

Which stoichiometry N [2] does the source give for “hemagglutinin (HA) of H1N1 influenza A strain A/Melbourne/1/1946, mature HA1/HA2 trimer (natural protein)” here?
The stoichiometry N was 3.

Which stoichiometry N [3] does the source give for “hemagglutinin (HA) of H1N1 influenza A strain A/Fort Monmouth/1/1947, mature HA1/HA2 trimer (natural protein)” here?
The stoichiometry N was 3.

For “hemagglutinin (HA) of H1N1 influenza A strain A/Netherlands/002P1/1951, mature HA1/HA2 trimer (natural protein)”, which stoichiometry N [4] is on record?
The stoichiometry N was 3.

How did the stoichiometry N [5] turn out when “hemagglutinin (HA) of H1N1 influenza A strain A/Hickox/JY2/1940, mature HA1/HA2 trimer (from UniProt Q0HD60) (natural protein)” was run?
The stoichiometry N was 3.

B1: anti-influenza head-binding antibody C05 fragment antigen binding (Fab) (Fab, V domains shown)
VH: EVQLQESGGGLVQPGESLRLSCVGSGSSFGESTLSYYAVSWVRQAPGKGLEWLSIINAGGGDIDYADSVEGRFTISRDNSKETLYLQMTNLRVEDTGVYYCAKHMSMQQVVSAGWERADLVGDAFDVWGQGTMVTVSS
VL: DIQLTQSPSSLSASVGDRVTLTCQASQDIRKFLNWYQQKPGKGPKLLIYDASNLQRGVPSRFSGGGSGTDFTLIISSLQPEDVGTYYCQQYDGLPFTFGGGTKVVIK
notes: also called C05 Fab; C05 antibody; not shown: His6, C-terminal, kept
Does B1 bind [6]?
Result: binds
